From US6528098B2, “Preparation of a therapeutic composition” (Advanced Viral Research Corp., priority 1996, dated 2003)
No end group written: not given here.

System: Calf thymus alkaline phosphatase (CIAP)
Experiment: Treatment of Product R with alkaline phosphatase, SDS-PAGE on a 16% gel
Assay type: physicochemical
Parameters: key to Sensitivity of the Peptide Components of Product R (SDS-PAGE): Alkaline Phosphatase (200 units/ml): “−” represents no substantial alteration of the stainable bands; “+” represents substantial alteration of the stainable bands
Conditions: 200 units/ml CIAP, 37° C., about one hour
Description: The biochemical properties of the peptides: Some biochemical properties of the silverstainable peptide components of Product R are analyzed using various catabolic enzymes, as described below:
The treatment with alkaline phosphatase (Life Technologies, USA): Calf thymus alkaline phosphatase (CIAP) is a phosphomonoesterase that hydrolyses 5′-phosphate groups from DNA, RNA and nucleotides. A Product R sample is incubated in a reaction buffer provided by the manufacturer of the enzyme and 200 units/ml CIAP at 37° C. for about one hour and subjected to SDS-PAGE on a 16% gel.
A summary of the above described treatments by catabolic enzymes is provided in the following TABLE III, and the results of the treatment are shown in FIG. 5, wherein “−” represents no substantial alteration of the stainable bands and “+” represents substantial alteration of the stainable bands.

| Sequence | Sensitivity of the Peptide Components of Product R (SDS-PAGE): Alkaline Phosphatase (200 units/ml) | change of band intensity / hydrolysis by alkaline phosphatase |
| --- | --- | --- |
| GEIPDAGGRIVDYYVGFSDSV (not fully specified (residue 18)) [Peptide-B, 21-amino acid peptide linked at serine 18 through a diphosphodiester group to the 3′-end of an adenylyl (3′-5′) adenosine moiety] | − | resistance |
| KVLPVPQKAVPYPQRDMPIQAFLLYQEPVLG [Peptide-A, 31-amino-acid long peptide derived from bovine beta-casein, constituent of Product R] | − |  |
